Common to all, as to test: cell-based or functional assay
For assay [1], the target named is GLP-1 receptor (GLP-1R) (UniProt P43220).
Assay [2] addresses GCG receptor (GCGR) (UniProt P47871).
The target of assay [3] is GIP receptor (GIPR) (UniProt P48546).
The target of assay [4] is GCG receptor (GCGR) (UniProt P47871 26-477, limits assumed).
The target of assay [5] is T1, GIP receptor (GIPR) (UniProt P48546 22-466, limits assumed).
T1 sequence (looked up): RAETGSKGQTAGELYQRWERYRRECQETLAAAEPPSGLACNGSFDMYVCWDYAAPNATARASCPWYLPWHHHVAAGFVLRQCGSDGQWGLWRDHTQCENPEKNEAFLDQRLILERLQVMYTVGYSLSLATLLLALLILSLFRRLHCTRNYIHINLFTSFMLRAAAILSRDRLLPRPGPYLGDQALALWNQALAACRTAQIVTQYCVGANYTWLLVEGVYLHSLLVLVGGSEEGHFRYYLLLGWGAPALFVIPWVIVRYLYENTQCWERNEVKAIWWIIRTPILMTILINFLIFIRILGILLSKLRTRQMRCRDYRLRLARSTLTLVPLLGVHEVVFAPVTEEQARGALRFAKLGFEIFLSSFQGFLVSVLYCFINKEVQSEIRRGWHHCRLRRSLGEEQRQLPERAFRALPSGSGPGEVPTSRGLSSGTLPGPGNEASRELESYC

The target of assay [6] is GLP-1 receptor (GLP-1R) (UniProt P43220 24-463, limits assumed).

Results on six molecules are retold here after patent EP4624486A1 (Guangdong Raynovent Biotech Co., Ltd., dated 2025).

Bridge positions count the residues as written; N and C are the ends. Square brackets hold non-standard residues; d marks the D form. Ends that are not written are not given here. αMeF = C[C@](N)(Cc1ccccc1)C(=O)O; αMeL = CC(C)C[C@](C)(N)C(=O)O; Aib = CC(C)(N)C(=O)O

Chain of GCG receptor (GCGR) (UniProt P47871 26-477, limits assumed) (P47871 26-477 limits assumed): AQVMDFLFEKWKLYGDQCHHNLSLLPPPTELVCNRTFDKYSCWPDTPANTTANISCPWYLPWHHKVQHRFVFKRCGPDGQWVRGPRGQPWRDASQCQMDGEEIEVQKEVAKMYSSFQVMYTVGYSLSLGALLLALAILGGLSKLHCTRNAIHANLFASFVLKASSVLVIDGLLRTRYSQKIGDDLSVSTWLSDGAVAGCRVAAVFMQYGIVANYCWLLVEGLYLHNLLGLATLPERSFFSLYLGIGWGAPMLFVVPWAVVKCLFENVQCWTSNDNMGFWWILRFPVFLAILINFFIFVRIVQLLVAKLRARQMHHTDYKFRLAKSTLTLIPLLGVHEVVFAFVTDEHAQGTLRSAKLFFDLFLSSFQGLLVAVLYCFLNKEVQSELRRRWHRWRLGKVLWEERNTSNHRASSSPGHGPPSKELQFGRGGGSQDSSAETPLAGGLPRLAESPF
Chain of GLP-1 receptor (GLP-1R) (UniProt P43220) (P43220 24-463 limits assumed): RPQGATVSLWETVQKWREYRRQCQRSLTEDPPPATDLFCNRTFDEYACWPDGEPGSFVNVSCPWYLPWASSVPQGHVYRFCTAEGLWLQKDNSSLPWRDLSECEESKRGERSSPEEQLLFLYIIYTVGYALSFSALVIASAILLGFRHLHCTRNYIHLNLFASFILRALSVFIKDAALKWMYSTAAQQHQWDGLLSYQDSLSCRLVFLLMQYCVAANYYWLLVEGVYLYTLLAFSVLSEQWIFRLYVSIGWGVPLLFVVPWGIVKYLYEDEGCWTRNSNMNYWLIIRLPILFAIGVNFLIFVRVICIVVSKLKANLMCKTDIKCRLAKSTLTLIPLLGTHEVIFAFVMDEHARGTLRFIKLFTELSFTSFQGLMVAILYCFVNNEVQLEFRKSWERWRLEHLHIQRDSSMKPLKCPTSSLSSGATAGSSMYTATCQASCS
Chain of GCG receptor (GCGR) (UniProt P47871) (P47871 26-477 limits assumed): as the sequence (P47871 26-477 limits assumed) above

For the molecule “Human GLP-1 (7-37) (from UniProt P01275 21-180) (ligand)”, the GLP-1 EC50 (nM); cAMP, agonistic activity in assay [1] turned out to be 0.001 nM.

In the case of LY3437943 (peptide), the GCG EC50 (nM); cAMP, agonistic activity in assay [2] is 0.031 nM. The molecule also gave a GLP-1 EC50 (nM); cAMP, agonistic activity in assay [1] of 0.014 nM. Further, the GIP-1 EC50 (nM); cAMP, agonistic activity in assay [3] was found to be 0.001 nM.

B1: Example 54 (peptide)
peptide: Y[Aib]QGTFTSDYSI[αMeL]KDKKAQ[Aib]AFIEYLLKGGPSSGAPPPS-NH2
modifications: bridge 14-17; not fully specified (bridges); also: stapled body (lipidated) structure only in drawing chem0263
Consider B1, for which the “GCG EC50 (nM); cAMP, agonistic activity” value in assay [4] is 0.02 nM. Moreover, the “GIP-1 EC50 (nM); cAMP, agonistic activity” value (“GIP-1 EC50 (nM); cAMP” for short) in assay [5] amounted to 0.0004 nM. In addition, the “GLP-1 EC50 (nM); cAMP, agonistic activity” value (“GLP-1 EC50 (nM); cAMP” for short) in assay [6] worked out at 0.002 nM.

As for Y[Aib]QGTFTSDYSI[αMeL]KDKKAQ[Aib]AFIEYLLEGGPSSGAPPPS-NH2 (linker 14-17 via (2-2-oxoethyl)‑glycine, AEEA, Lys, γGlu, C20 diacid) [Example 52], the “GCG EC50 (nM); cAMP, agonistic activity” value in assay [4] turned out to be 0.025 nM. In assay [5], the “GIP-1 EC50 (nM); cAMP” value is 0.0001 nM. The “GLP-1 EC50 (nM); cAMP” value in assay [6] was determined as 0.003 nM.

B2: Example 51 (peptide)
peptide: Y[Aib]QGT[αMeF]TSDYSI[αMeL]KDKKAQ[Aib]AFIEYLLKGGPSSGAPPPS-NH2
modifications: bridge 14-17; not fully specified (bridges); also: stapled body (lipidated) structure only in drawing chem0260
Take B2: the “GCG EC50 (nM); cAMP, agonistic activity” value in assay [4] was 0.025 nM. In addition, the “GIP-1 EC50 (nM); cAMP” value in assay [5] is 0.0002 nM. In addition, the “GLP-1 EC50 (nM); cAMP” value in assay [6] worked out at 0.001 nM.

B3: Example 45 (peptide)
peptide: Y[Aib]QGTFTSDYSI[αMeL]KDKKAQ[Aib]AFIEYLLEGGPSSGAPPPS-NH2
modifications: bridge 14-17; not fully specified (bridges); also: stapled body (lipidated) structure only in drawing chem0251
Consider B3, for which, in assay [4], the “GCG EC50 (nM); cAMP, agonistic activity” value is 0.029 nM. In addition, the “GIP-1 EC50 (nM); cAMP” value in assay [5] is 0.0001 nM. Also, the “GLP-1 EC50 (nM); cAMP” value in assay [6] came to 0.005 nM.
